From PMC6643279 (Biochemistry, 2018)

Tests used:
Test in all cases: purified protein
[1] = system: CC(=O)OCC(COP(=O)(O)O)OC(C)=O; conditions: pH 8.0; 30.0 °C
CC(=O)Oc1c[nH]c2ccccc12 = conditions: pH 8.3; 30.0 °C
CC(=O)Oc1ccc2ccccc2c1 = conditions: pH 8.0; 30.0 °C

## phosphotriesterase homology protein (PHP) (Escherichia coli K-12)
[1]
  Km: 6000 ± 500 µM
  kcat/Km: 4600 ± 650 M⁻¹ s⁻¹
CC(=O)Oc1c[nH]c2ccccc12
  Km: 1800 ± 200 µM
  kcat/Km: 180 ± 20 M⁻¹ s⁻¹
CC(=O)Oc1ccc2ccccc2c1
  Km: 1800 ± 200 µM
  kcat/Km: 1400 ± 200 M⁻¹ s⁻¹
